Measurements published in the MegaScale stability set (Tsuboyama et al. 2023).

B1: EHEE_rd3_0053 (parent)
chain: TYTFKVDNKDQAKKAAKWAKKLGLSFQIEKHGDTFKITVQ

Variants of: B1
Experiment: folding stability dG (cDNA display proteolysis); higher = more stable
Conditions: PBS, room temperature

Folding stability dG [kcal/mol]: each site, then its substitutions
K5: I 3.47 | P 1.7 | S 2.96 | H 3.07 | F 3.77 | R 2.22 | M 3.24 | D 2.34 | T 3.28
K21: P -0.644 | T 2.16 | A 2.41 | R 2.49 | H 2.16
A12: Q 0.843 | E 0.263 | C 3.23 | R 1.29 | F 1.36 | K 1.26 | P -0.057
K17: C 2.6 | Y 2.34 | I 2.53 | W 2.43 | R 2.63 | T 2.17 | S 2.33 | V 2.23 | A 2.61 | Q 2.57 | N 2.23 | E 2.36
I37: F 2.15 | Y 0.365 | V 2.35 | L 1.47
L22: E 1.46 | D -0.31 | K 2.44 | M 2.54 | C 3.29 | S 1.56 | V 1.78 | T 1.41 | W 2.21 | I 1.76
D33: I 1.91 | R 2.11 | A 2.18 | N 2.45 | L 2.14 | W 1.76
D7: R 2.68 | P 2.27 | I 2.27 | M 2.51 | S 2.66 | F 2.83 | L 2.4 | G 2.45 | Y 2.78 | T 2.47 | A 2.71 | C 3.29
L24: H 1.31 | Q 0.563 | E -0.483 | A 1.01 | T 0.294 | M 2.11 | I 1.73 | S 0.343 | K 1.32
H31: D 2.97 | G 1.34 | W 2.41
Q40: H 2.56 | C 2.75 | M 2.6 | S 2.77 | V 2.41 | F 3.05 | G 2.55 | A 2.46 | P 1.14 | L 2.41 | N 2.4 | D 1.98
S25: T 2.45 | D 2.18 | E 2.21 | R 2.4 | Q 2.37 | M 2.29 | P 1.97 | G 1.89 | N 2.36
K9: I 2.87 | Y 2.86 | M 2.74 | S 2.14 | R 2.46 | V 2.57
K13: R 2.66 | I 2.49 | C 3.24 | H 2.07 | M 2.55 | N 2.27 | F 2.23 | D 2.46 | Q 2.3 | E 2.32 | G 1.72
G23: Y 1.1 | P -0.809 | F 1.3 | N 1.97 | A 1.23 | V 0.722 | E 1.08 | H 1.79
Y2: C 3.58 | E 0.685 | F 2.57 | I 2.27 | R 1.97 | H 1.95 | D 0.593
T3: R 1.6 | G 0.986 | Q 1.95 | L 1.39 | K 1.46 | I 2.43 | V 2.49 | F 2.2
A15: H 1.42 | W 3.48 | P -0.232 | I 3.43 | L 2.82 | S 1.26 | R 1.43 | G 0.564 | T 1.85
F26: M 2.05 | N -0.442 | T 1.34 | G -0.311 | Y 2.29 | I 2.64 | P 0.848 | W 1.88 | A 1.81
T34: R 2.41 | I 2.68 | K 2.65 | M 2.59 | Q 2.81 | E 2.4 | L 2.36 | W 2.72
K14: P -0.126 | T 1.89 | Q 2.24 | M 2.34 | E 1.95 | A 2.62 | G 1.53 | W 2.4 | D 1.56 | V 2.08 | I 2.21
G32: Q 1.76 | Y 1.59 | F 1.65 | K 1.77 | M 1.7 | A 1.64 | S 1.31 | H 1.61
V6: T 2.1 | W 1.28 | G 0.437 | E 0.257 | Y 1.92 | A 1.62
T1: E 2.25 | P 2.15 | L 2.21 | M 2.37 | I 2.51 | C 3.57 | D 1.93 | G 2.42 | N 2.17 | Q 2.34 | W 2.67 | H 2.3 | R 2.45
E29: K 2.07 | I 2.24 | A 2.06 | C 2.64 | S 2.27 | H 2.01 | T 2.48 | L 1.89 | W 2 | Q 2.19
K30: H 1.91 | F 1.91 | S 2.03 | D 1.84 | L 1.98
A19: G 0.902 | T 0.316 | W 1.23 | K -0.645 | H 0.465 | E -0.425 | R -0.112 | I 2.44
N8: R 1.86 | Q 1.47 | G 2.35 | A 1.27 | H 1.73 | F 1.46 | E 1.16 | M 1.15
K20: V 1.98 | S 2.08 | G 1.54 | R 2.45 | D 1.48 | H 2.01 | I 2.24 | T 2.24
A16: S 1.87 | D 0.642 | Y 2.45 | M 2.45 | H 1.65 | R 2.56 | N 1.06 | V 2.47
F4: H 0.581 | W 2.38 | A 0.455 | R 0.333 | Y 1.69 | C 3.42 | I 1.79 | M 1.23 | P 0.467 | T 0.349 | S 0.126 | V 1.2
I28: L 1.84 | M 2.15 | Q 0.977 | K 1.06 | V 2.23 | N -0.243 | R 0.785
V39: H -0.097 | P -0.963 | I 2.82 | F 2.06 | S -0.061 | T 0.975 | A 0.718
D10: Q 2.68 | L 2.68 | S 2.71 | M 2.67 | F 2.75 | G 2.44 | W 2.98 | I 2.62 | C 2.72
T38: I 2.34 | N 1.09 | H 1.8 | A 1.3 | V 2.01 | S 1.81 | M 1.83
K36: N 2.16 | E 2.45 | Q 2.66 | H 2.66 | W 3.32 | A 2.28 | T 2.88 | I 3.28 | V 3.14 | S 2.52 | Y 3.17
Q27: A 2.31 | Y 2.58 | W 2.62 | V 2.62 | F 2.6 | T 2.71 | R 2.61 | G 1.53 | H 2.52 | N 2.29 | D 1.9
W18: M 1.68 | Y 1.61 | E 0.8 | I 1.72 | S 0.747 | D 0.328 | Q 1.17
F35: K -0.99 | N -0.413 | W 2.75 | C 1.93 | I 1.85 | Q 0.075 | S -0.159
Q11: N 1.72 | L 2.33 | K 2.38 | M 2.36 | S 2.18 | I 1.97 | A 2.65
